# Results published in article PMC8752512 (Journal of molecular biology, 2021).
# Target: Fgr SH3 domain (human, UniProt P09769 77-138, uniformly 15N-labelled)
# Assay: NMR titration
binder,measurement,value
PPTPNPPRPP [arrestin-3 aSwI peptide (PPTPNPPRPP)],Kd,347 µM
